Molecular target: T1, EZH2 (UniProt Q15910 1-746, limits assumed)
T1 construct: Endogenous protein immunoprecipitated from U266 cell chromatin; also called polycomb complex methyl-transferase EZH2
Assay: ChIP-reChIP qPCR in U266 cells (IP against RARalpha, then EZH2)
Procedure: Chromatin immunoprecipitation (ChIP) combined with real-time quantitative polymerase chain reaction (ChIP-RQ-PCR) was performed for anti-H3K4me3, anti-H3K27me3, anti-RNA polymerase II CTD phospho Ser2, anti-RNA polymerase II CTD phospho Ser5, anti-EZH2, anti-RARα and control IgG as previously described²⁵. For Re-ChIP assays, the wash and chromatin elution steps of the first IP were performed with protease inhibitor-containing buffers and the first elution was performed by incubating the magnetic beads in 10 mM DTT/TE for 30 min at 37° C. The eluate of the first IP was diluted at least 20× in ChIP dilution buffer, followed by a second IP according to the same protocol as above. Expression of immunoprecipitated DNA was calculated, either relative to input DNA or DNA immunoprecipitated by control IgG antibody, using the ΔΔCT method.

T1 sequence (Q15910 whole entry): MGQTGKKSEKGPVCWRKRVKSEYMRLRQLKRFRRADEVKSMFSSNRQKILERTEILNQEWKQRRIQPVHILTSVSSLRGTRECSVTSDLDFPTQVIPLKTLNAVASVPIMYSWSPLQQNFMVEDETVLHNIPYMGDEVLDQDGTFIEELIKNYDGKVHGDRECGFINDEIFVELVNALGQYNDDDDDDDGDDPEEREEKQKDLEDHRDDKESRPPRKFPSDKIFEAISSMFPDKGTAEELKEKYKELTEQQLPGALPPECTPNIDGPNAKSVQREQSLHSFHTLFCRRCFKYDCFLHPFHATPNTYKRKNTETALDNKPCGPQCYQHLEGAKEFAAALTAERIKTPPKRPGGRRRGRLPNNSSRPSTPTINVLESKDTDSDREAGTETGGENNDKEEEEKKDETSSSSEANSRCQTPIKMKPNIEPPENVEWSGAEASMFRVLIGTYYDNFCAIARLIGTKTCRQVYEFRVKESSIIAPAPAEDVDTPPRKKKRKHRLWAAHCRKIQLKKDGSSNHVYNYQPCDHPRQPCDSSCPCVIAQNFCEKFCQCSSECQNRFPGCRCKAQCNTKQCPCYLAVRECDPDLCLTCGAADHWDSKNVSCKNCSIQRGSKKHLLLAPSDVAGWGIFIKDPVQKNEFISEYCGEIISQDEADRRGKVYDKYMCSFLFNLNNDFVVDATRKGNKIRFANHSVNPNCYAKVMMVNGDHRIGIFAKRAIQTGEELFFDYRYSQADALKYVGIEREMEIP

binding result: binds
B1: RARalpha (receptor, UniProt P10276 1-462, looked up)
chain: MASNSSSCPTPGGGHLNGYPVPPYAFFFPPMLGGLSPPGALTTLQHQLPVSGYSTPSPATIETQSSSSEEIVPSPPSPPPLPRIYKPCFVCQDKSSGYHYGVSACEGCKGFFRRSIQKNMVYTCHRDKNCIINKVTRNRCQYCRLQKCFEVGMSKESVRNDRNKKKKEVPKPECSESYTLTPEVGELIEKVRKAHQETFPALCQLGKYTTNNSSEQRVSLDIDLWDKFSELSTKCIIKTVEFAKQLPGFTTLTIADQITLLKAACLDILILRICTRYTPEQDTMTFSDGLTLNRTQMHNAGFGPLTDLVFAFANQLLPLEMDDAETGLLSAICLICGDRQDLEQPDRVDMLQEPLLEALKVYVRKRRPSRPHMFPKMLMKITDLRSISAKGAERVITLKMEIPGSMPPLIQEMLENSEGLDTLSGQPGGGGRDGGGLAPPPGSCSPSLSPSSNRSSPATHSP
notes: Endogenous protein immunoprecipitated from U266 cell chromatin
